Columns and labels:
in vivo = assay: in vivo; parameters: species or system BALB/C nu/nu mice; settings: BALB/C nu/nu, mouse, iv, total radioactivity
Experimental: In vivo studies were conducted in accordance with European guidelines on laboratory animal protection and the Declaration of Helsinki. For the biodistribution and PET/CT experiments BALB/C nu/nu mice were used and the protocols were approved by the ethics committee for animal research in Uppsala (Sweden); permit number 00473/21.
After acclimatization, animals were subcutaneously injected on the right hind leg with a suspension of freshly harvested PC-3 cells (7 × 10^6 per animal) in PBS. Four weeks after, well palpable solid tumors were developed and the animals were randomly assigned in groups of four.
Animals (19 ± 2 g at the day of the experiment) were injected through the tail vein with 100 μL solution of radiopeptide under evaluation (40 pmol, 100 kBq–1 h pi, 40 pmol, 700 kBq–3 h pi) in PBS containing 1% w/v BSA. Another group of animals received a bolus injection with the radioconjugate (40 pmol, 300 kBq) in addition of 4 nmol of NOTA-PEG2-RM26–1 h pi Block group. At specified time points, animals were euthanized, tissues/organs of interest and tumors were collected, weighted, and the radioactivity content of the samples was measured.
Statistical analysis for the biodistribution data was performed with GraphPad Prism 7, employing a two-way ANOVA test with Tuckey’s posthoc analysis.

[1] = in vivo; cited from earlier work
Source text: In agreement with their preclinical data, SUV values for the pancreas for [^68Ga]Ga-SB3 and [^68Ga]Ga-RM2 were around 40, while for [^68Ga]Ga-PEG3-RM26, this value was 2-fold lower.

PC-3 bearing mice = settings: mouse, in vivo; cited from earlier work
Experimental: It is quite interesting to compare the biodistribution results for the two new conjugates with their counterparts without the Gly^11/Sar^11 substitution, i.e., [^68Ga]Ga-NOTA-PEG2-RM26 and [^68Ga]Ga-NODAGA-PEG2-RM26, previously reported.[24] Despite the similar amounts of peptide and activity injected, the biodistribution data for [^68Ga]Ga-NOTA-PEG2-RM26 and [^68Ga]Ga-NODAGA-PEG2-RM26, in PC-3 bearing mice, are reported only for […].[24] Under these conditions, we are going to focus on a comparison with the data for 3 h pi.

[2] = 40 pmol, Activity in GI (gastrointestinal tract)
[3] = 40 pmol, Activity uptake in blood
[4] = 40 pmol, Activity uptake in kidneys
[5] = 40 pmol, Activity uptake in tumor
[6] = Activity in GI (gastrointestinal tract)

Row | Compound | tissue uptake dose at 1 h (in vivo; [2]) | tissue uptake dose at 3 h (in vivo; [2]) | tissue uptake dose at 1 h (in vivo; 40 pmol, Activity in body) | tissue uptake dose at 3 h (in vivo; 40 pmol, Activity in body) | tissue uptake at 1 h (in vivo; [3]) | tissue uptake at 1 h (in vivo; [4]) | tissue uptake at 1 h (in vivo; [5]) | tissue uptake at 3 h (in vivo; [5]) | tissue uptake dose at 1 h (in vivo; [6]) | tissue uptake dose at 1 h (in vivo; Activity in body) | SUV values for the pancreas [1] | Tumor/pancreas ratio (PC-3 bearing mice)
1 | CC(C)C[C@H](NC(=O)C[C@H](O)[C@H](CC(C)C)NC(=O)[C@H](Cc1c[nH]cn1)NC(=O)CN(C)C(=O)[C@@H](NC(=O)[C@H](C)NC(=O)[C@H](Cc1c[nH]c2ccccc12)NC(=O)[C@H](CCC(N)=O)NC(=O)[C@@H](Cc1ccccc1)NC(=O)COCCOCCNC(=O)CN1CCN(CC(=O)O)CCN(CC(=O)O)CC1)C(C)C)C(N)=O [[^68Ga]Ga-NOTA-PEG2-[Sar^11]RM26, metal not drawn] | 3 ± 0.4 %ID | 2 ± 1 %ID | 5 ± 0.2 %ID | 2 ± 1 %ID | < 1 %ID/g | < 5 %ID/g | 14 ± 3 %ID/g | 13 ± 1 %ID/g | 1.7 ± 0.2 %ID | 4.1 ± 0.6 %ID | – | –
2 | DOTA-p-aminomethylaniline-diglycolic acid-DPhe-Gln-Trp-Ala-Val-Gly-His-Leu-NHEt [[^68Ga]Ga-SB3, GRPR-targeting radioconjugate tested in clinical trials] | – | – | – | – | – | – | – | – | – | – | around 40 | –
3 | DOTA-Pip-DPhe-Gln-Trp-Ala-Val-Gly-His-Sta-Leu-NH2 [[^68Ga]Ga-RM2, GRPR-targeting radioconjugate tested in clinical trials] | – | – | – | – | – | – | – | – | – | – | around 40 | –
4 | NOTA-PEG3-d-Phe-Gln-Trp-Ala-Val-Gly-His-Sta-Leu-NH2 [[^68Ga]Ga-NOTA-PEG3-RM26, GRPR-targeting radioconjugate tested in clinical trials] | – | – | – | – | – | – | – | – | – | – | 2-fold lower | over 1
5 | CC(C)C[C@H](NC(=O)C[C@H](O)[C@H](CC(C)C)NC(=O)[C@H](Cc1c[nH]cn1)NC(=O)CN(C)C(=O)[C@@H](NC(=O)[C@H](C)NC(=O)[C@H](Cc1c[nH]c2ccccc12)NC(=O)[C@H](CCC(N)=O)NC(=O)[C@@H](Cc1ccccc1)NC(=O)COCCOCCNC(=O)CCC(C(=O)O)N1CCN(CC(=O)O)CCN(CC(=O)O)CC1)C(C)C)C(N)=O (stereo partly drawn) [[^68Ga]Ga-NODAGA-PEG2-[Sar^11]RM26, metal not drawn] | 2.5 ± 0.3 %ID | 1.8 ± 0.7 %ID | 3.8 ± 0.6 %ID | 2.2 ± 0.9 %ID | < 1 %ID/g | < 5 %ID/g | 17 ± 3 %ID/g | 15 ± 3 %ID/g | 1.6 ± 0.2 %ID | 4 ± 3 %ID | – | –

Reference: paper PMC11044165, “Two Novel [^68Ga]Ga-Labeled Radiotracers Based on Metabolically Stable [Sar^11]RM26 Antagonistic Peptide for Diagnostic Positron Emission Tomography Imaging of GRPR-Positive Prostate Cancer” (ACS Omega, 2024)
